± gives the standard deviation of the averaged measurements.
Legend:
Saccharomyces cerevisiae [1] = assay: protein stability index of tFT-peptide fusion (C-terminal peptide) (PSI (0-1 scale)); higher = more stable (slower turnover); details: genetic background: wild type; temperature: 30 C
Saccharomyces cerevisiae [2] = assay: as above
Description: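 MPS profiling in S. cerevisiae of the tFT-X12 degron library: putative degron peptides plus stable controls, 12 aa, fused to the C-terminus of a sfGFP-mCherry timer. Cells are FACS-sorted into 8 mCherry/sfGFP bins and deep-sequenced. PSI runs from 0 (unstable) to 1 (stable). Backgrounds are wild type, das1Δ and doa10Δ at 30 °C, and wild type, das1Δ, cdc34-1 and cdc53-1 at 37 °C; 2-3 technical replicates each.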

[3] = genetic background: cdc34-1, temperature: 37 C
[4] = genetic background: cdc53-1, temperature: 37 C
[5] = genetic background: das1 deletion, temperature: 30 C
[6] = genetic background: das1 deletion, temperature: 37 C
[7] = genetic background: doa10 deletion, temperature: 30 C
[8] = genetic background: wild type, temperature: 30 C
[9] = genetic background: wild type, temperature: 37 C
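Also: PSI is a weighted mean of sequencing reads over stability bins, variants kept only with over 10 reads, mCherry proximal and sfGFP distal, peptide attached via GGGS linker.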

| Sequence | protein stability index (Saccharomyces cerevisiae [1]) | protein stability index (Saccharomyces cerevisiae [2]; [3]) | protein stability index (Saccharomyces cerevisiae [2]; [4]) | protein stability index (Saccharomyces cerevisiae [2]; [5]) | protein stability index (Saccharomyces cerevisiae [2]; [6]) | protein stability index (Saccharomyces cerevisiae [2]; [7]) | protein stability index (Saccharomyces cerevisiae [2]; [8]) | protein stability index (Saccharomyces cerevisiae [2]; [9]) |
| --- | --- | --- | --- | --- | --- | --- | --- | --- |
| FLLPILSSSPVL | 0.727 ± 0.035 | 0.692 ± 0.063 | 0.742 ± 0.019 | 0.657 ± 0.011 | 0.735 ± 0.012 | 0.685 ± 0.019 | 0.667 ± 0.025 | 0.6913 ± 0.0023 |
| FLRLSFLIFPLH | 0.498 ± 0.02 | 0.546 ± 0.029 | 0.6295 ± 0.00058 | 0.471 ± 0.03 | 0.583 ± 0.0021 | 0.396 ± 0.026 | 0.409 ± 0.023 | 0.546 ± 0.029 |
| FLSCSRRPLRCW | 0.463 ± 0.027 | 0.40972 ± 0.00036 | 0.445 ± 0.048 | 0.303 ± 0.035 | 0.4962 ± 0.00098 | 0.273 ± 0.0051 | 0.301 ± 0.032 | 0.469 ± 0.021 |
| FMPFSLLALFVW | 0.343 ± 0.017 | 0.286 ± 0.00069 | 0.318 ± 0.0033 | 0.267 ± 0.02 | 0.372 ± 0.0064 | 0.2321 ± 0.0021 | 0.241 ± 0.041 | 0.328 ± 0.0069 |
| FNLTCLLISFFN | 0.519 ± 0.045 | 0.593 ± 0.02 | 0.609 ± 0.063 | 0.453 ± 0.036 | 0.658 ± 0.0081 | 0.368 ± 0.005 | 0.417 ± 0.015 | 0.553 ± 0.028 |
| FPCIFFFCLFIL | 0.271 ± 0.05 | 0.209 ± 0.039 | 0.197 ± 0.0039 | 0.251 ± 0.027 | 0.337 ± 0.025 | 0.31 ± 0.013 | 0.203 ± 0.021 | 0.276 ± 0.016 |
| FPLGMFWVCFFV | 0.264 ± 0.015 | 0.423 ± 0.026 | 0.464 ± 0.0058 | 0.357 ± 0.03 | 0.512 ± 0.025 | 0.181 ± 0.015 | 0.207 ± 0.023 | 0.357 ± 0.015 |
| FPYARHLSVLLL | 0.472 ± 0.029 | 0.598 ± 0.04 | 0.662 ± 0.02 | 0.564 ± 0.018 | 0.681 ± 0.022 | 0.371 ± 0.0079 | 0.392 ± 0.025 | 0.54 ± 0.007 |
| FRFSCLFSLFLS | 0.224 ± 0.011 | 0.413 ± 0.072 | 0.499 ± 0.01 | 0.478 ± 0.029 | 0.5168 ± 0.0051 | 0.169 ± 0.0091 | 0.143 ± 0.036 | 0.24 ± 0.025 |
| FRLFSLWFCWVR | 0.348 ± 0.015 | 0.13 ± 0.0073 | 0.0999 ± 0.022 | 0.227 ± 0.025 | 0.297 ± 0.014 | 0.365 ± 0.013 | 0.212 ± 0.034 | 0.26 ± 0.025 |
| FRVSAFFLPFLS | 0.4 ± 0.013 | 0.652 ± 0.031 | 0.715 ± 0.008 | 0.655 ± 0.022 | 0.735 ± 0.015 | 0.226 ± 0.011 | 0.246 ± 0.022 | 0.486 ± 0.048 |
| FSFLLYASLVTH | 0.314 ± 0.015 | 0.298 ± 0.016 | 0.343 ± 0.032 | 0.307 ± 0.021 | 0.333 ± 0.021 | 0.322 ± 0.0038 | 0.297 ± 0.013 | 0.3145 ± 0.00081 |
| FSGFPLTLSPPL | 0.7224 ± 0.0042 | 0.717 ± 0.029 | 0.7715 ± 0.0044 | 0.67 ± 0.024 | 0.753 ± 0.013 | 0.685 ± 0.0098 | 0.679 ± 0.019 | 0.73 ± 0.018 |
| FSVLLLANFCFF | 0.482 ± 0.0056 | 0.498 ± 0.031 | 0.516 ± 0.0072 | 0.409 ± 0.037 | 0.554 ± 0.015 | 0.363 ± 0.016 | 0.407 ± 0.043 | 0.528 ± 0.015 |
| FSVLRLVIVSLL | 0.0995 ± 0.012 | 0.227 ± 0.012 | 0.503 ± 0.067 | 0.35 ± 0.037 | 0.537 ± 0.019 | 0.0564 ± 0.004 | 0.0846 ± 0.04 | 0.0783 ± 0.029 |
| FSVSYFRLVRLC | 0.0191 ± 0.027 | 0.39 ± 0.017 | 0.572 ± 0.0077 | 0.458 ± 0.032 | 0.602 ± 0.0083 | 0.0722 ± 0.003 | 0.0819 ± 0.038 | 0.08731 ± 0.00027 |
| FTNLDYTKEKNN | 0.29 ± 0.017 | 0.423 ± 0.15 | 0.6798 ± 0.0014 | 0.623 ± 0.052 | 0.708 ± 0.042 | 0.134 ± 0.012 | 0.146 ± 0.025 | 0.178 ± 0.0045 |
| FVIVSSCIGYAL | 0.499 ± 0.015 | 0.603 ± 0.039 | 0.641 ± 0.036 | 0.451 ± 0.028 | 0.584 ± 0.0076 | 0.4365 ± 0.0039 | 0.46 ± 0.025 | 0.561 ± 0.032 |
| FVLLSVCFFGCL | 0.442 ± 0.024 | 0.306 ± 0.011 | 0.4219 ± 0.0028 | 0.336 ± 0.024 | 0.495 ± 0.017 | 0.301 ± 0.0069 | 0.327 ± 0.004 | 0.438 ± 0.044 |
| FVMLSFLVSSLP | 0.4255 ± 0.0037 | 0.404 ± 0.006 | 0.489 ± 0.039 | 0.346 ± 0.028 | 0.513 ± 0.006 | 0.3038 ± 0.0018 | 0.34 ± 0.017 | 0.495 ± 0.0055 |

| Sequence | protein stability index (Saccharomyces cerevisiae [1]) | protein stability index (Saccharomyces cerevisiae [2]; [3]) | protein stability index (Saccharomyces cerevisiae [2]; [4]) | protein stability index (Saccharomyces cerevisiae [2]; [5]) | protein stability index (Saccharomyces cerevisiae [2]; [6]) | protein stability index (Saccharomyces cerevisiae [2]; [7]) | protein stability index (Saccharomyces cerevisiae [2]; [8]) | protein stability index (Saccharomyces cerevisiae [2]; [9]) |
| --- | --- | --- | --- | --- | --- | --- | --- | --- |
| FVMTYCLMSVSK | 0.0465 ± 0.035 | 0.0323 ± 0.018 | 0.0364 ± 0.002 | 0.0746 ± 0.02 | 0.0531 ± 0.038 | 0.063 ± 0.0057 | 0.07 ± 0.016 | 0.0478 ± 0.025 |
| FVRSVFFCVSVG | 0.469 ± 0.057 | 0.498 ± 0.037 | 0.531 ± 0.017 | 0.396 ± 0.029 | 0.548 ± 0.019 | 0.34 ± 0.012 | 0.373 ± 0.027 | 0.5 ± 0.018 |
| FVWAVGLVSASV | 0.503 ± 0.01 | 0.507 ± 0.0064 | 0.527 ± 0.0082 | 0.402 ± 0.022 | 0.561 ± 0.0067 | 0.379 ± 0.013 | 0.414 ± 0.03 | 0.52 ± 0.0091 |
| FWLFAFVIRKHI | 0.2057 ± 0.00034 | 0.286 ± 0.019 | 0.404 ± 0.013 | 0.324 ± 0.033 | 0.511 ± 0.007 | 0.10098 ± 0.0001 | 0.089 ± 0.0045 | 0.0641 ± 0.012 |
| FYSLYLSLVCFN | 0.224 ± 0.0011 | 0.345 ± 0.015 | 0.389 ± 0.0083 | 0.301 ± 0.034 | 0.454 ± 0.0076 | 0.161 ± 0.01 | 0.127 ± 0.016 | 0.256 ± 0.014 |
| GAVKCLVCLAVW | 0.404 ± 0.022 | 0.282 ± 0.0035 | 0.365 ± 0.054 | 0.309 ± 0.032 | 0.4138 ± 0.0017 | 0.26 ± 0.011 | 0.3 ± 0.026 | 0.3844 ± 0.00071 |
| GCGFSFFHIVVL | 0.121 ± 0.0051 | 0.111 ± 0.0053 | 0.113 ± 0.0037 | 0.147 ± 0.04 | 0.256 ± 0.024 | 0.416 ± 0.0071 | 0.152 ± 0.022 | 0.225 ± 0.0047 |
| GCLFMQVSLFWR | 0.286 ± 0.028 | 0.0959 ± 0.027 | 0.164 ± 0.018 | 0.147 ± 0.038 | 0.295 ± 0.023 | 0.177 ± 0.0049 | 0.138 ± 0.044 | 0.26 ± 0.017 |
| GDINRNTRYLEK | 0.556 ± 0.18 | 0.6705 ± 0.0048 | 0.7508 ± 0.0049 | 0.648 ± 0.029 | 0.698 ± 0.0092 | 0.649 ± 0.0063 | 0.6339 ± 0.0032 | 0.702 ± 0.024 |
| GFGRRGQFGGTG | 0.574 ± 0.14 | 0.86 ± 0.079 | 0.863 ± 0.016 | 0.607 ± 0.019 | 0.801 ± 0.048 | 0.542 ± 0.039 | 0.567 ± 0.04 | 0.835 ± 0.059 |
| GFRVTTCASWIC | 0.177 ± 0.02 | 0.557 ± 0.016 | 0.734 ± 0.011 | 0.612 ± 0.015 | 0.729 ± 0.015 | 0.143 ± 0.012 | 0.15 ± 0.027 | 0.191 ± 0.012 |
| GFSEGRLTIPVY | 0.455 ± 0.047 | 0.453 ± 0.025 | 0.4949 ± 0.0041 | 0.343 ± 0.04 | 0.5097 ± 0.0018 | 0.2949 ± 0.0027 | 0.345 ± 0.06 | 0.476 ± 0.01 |
| GFVISSCRLFIL | 0.337 ± 0.044 | 0.581 ± 0.052 | 0.632 ± 0.0072 | 0.59 ± 0.022 | 0.669 ± 0.011 | 0.272 ± 0.021 | 0.264 ± 0.024 | 0.3989 ± 0.0031 |
| GFVLLCFCCRTW | 0.393 ± 0.004 | 0.28 ± 0.01 | 0.421 ± 0.052 | 0.287 ± 0.032 | 0.4828 ± 0.0044 | 0.2477 ± 0.00056 | 0.277 ± 0.035 | 0.426 ± 0.03 |
| GGCYAGVAMRLI | 0.76 ± 0.015 | 0.653 ± 0.02 | 0.729 ± 0.026 | 0.644 ± 0.021 | 0.714 ± 0.042 | 0.632 ± 0.014 | 0.62 ± 0.027 | 0.681 ± 0.025 |
| GGGVGVVWVRLG | 0.256 ± 0.028 | 0.429 ± 0.03 | 0.678 ± 0.035 | 0.618 ± 0.013 | 0.72 ± 0.024 | 0.0905 ± 0.017 | 0.114 ± 0.014 | 0.137 ± 0.017 |
| GGLFRWCVWRIV | 0.145 ± 0.0086 | 0.413 ± 0.02 | 0.5292 ± 0.0032 | 0.545 ± 0.025 | 0.6377 ± 0.0015 | 0.102 ± 0.016 | 0.102 ± 0.0098 | 0.172 ± 0.025 |
| GGSWVRCLRTMG | 0.312 ± 0.029 | 0.628 ± 0.019 | 0.71 ± 0.024 | 0.614 ± 0.016 | 0.7097 ± 0.0014 | 0.17 ± 0.0073 | 0.158 ± 0.028 | 0.399 ± 0.032 |
| GGVWLSVVSWVG | 0.167 ± 0.021 | 0.156 ± 0.0086 | 0.238 ± 0.03 | 0.0995 ± 0.024 | 0.256 ± 0.012 | 0.0676 ± 0.00079 | 0.0976 ± 0.011 | 0.244 ± 0.0053 |

Reference: the supplement of paper PMC10724198
